Measured values reported in patent US20060141451A1 (ORTHO MCNEIL PHARMACEUTICAL, published 2006).
No end group written: not given here.

Legend:
[1] = target: T1, guinea pig proteinase-activated receptor 4 (PAR-4) (guinea pig (Cavia porcellus)); assay: cell-based or functional assay
T1 chain: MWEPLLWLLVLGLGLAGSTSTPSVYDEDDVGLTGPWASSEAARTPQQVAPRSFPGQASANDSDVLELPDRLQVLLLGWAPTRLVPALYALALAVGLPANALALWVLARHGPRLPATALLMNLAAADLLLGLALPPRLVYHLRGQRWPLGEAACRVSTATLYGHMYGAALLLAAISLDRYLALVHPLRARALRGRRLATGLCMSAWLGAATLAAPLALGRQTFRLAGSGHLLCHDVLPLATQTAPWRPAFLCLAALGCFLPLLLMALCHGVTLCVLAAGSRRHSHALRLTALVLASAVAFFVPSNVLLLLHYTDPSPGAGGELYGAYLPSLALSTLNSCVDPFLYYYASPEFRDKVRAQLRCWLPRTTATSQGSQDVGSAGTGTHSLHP

human PAR-4 = target: T2, human PAR-4 (human, UniProt Q96RI0 48-385); assay: cell-based or functional assay
T2 sequence (looked up): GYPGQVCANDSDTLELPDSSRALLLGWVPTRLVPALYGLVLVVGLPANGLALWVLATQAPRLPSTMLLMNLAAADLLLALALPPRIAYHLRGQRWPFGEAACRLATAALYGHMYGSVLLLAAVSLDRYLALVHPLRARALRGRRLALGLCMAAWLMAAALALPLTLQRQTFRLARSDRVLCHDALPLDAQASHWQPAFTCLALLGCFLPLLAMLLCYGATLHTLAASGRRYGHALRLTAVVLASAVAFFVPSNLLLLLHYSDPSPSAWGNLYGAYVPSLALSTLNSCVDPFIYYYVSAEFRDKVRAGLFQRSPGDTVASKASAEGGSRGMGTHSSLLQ

SFPGQA-NH2 [guinea pig PAR-4 activating peptide SFPGQA-NH2] was tested, and the “aggregation of guinea pig gel filtered platelets, EC50” value [1] was 174 µM and the “aggregation of human gel filtered platelets, EC50” value (human PAR-4) was 140 µM.
